Starred links: 1 amine or outer side, 2 acyl side, 3 side chain; linkers in the order of their positions; H or OH if unused. Non-standard residues stand in square brackets, D forms with d. Groups on a side chain read outwards from the residue. Primed or numbered codes have the meaning given here. No end group written: not given here. *: point of attachment. γGlu = O=C(O)[C@H](CCC(=O)[*:2])N[*:1]; Palmitoyl = CCCCCCCCCCCCCCCC(=O)*; αMeF = C[C@](N)(Cc1ccccc1)C(=O)O; Myristoyl = CCCCCCCCCCCCCC(=O)*; αMeK = C[C@](N)(CCCCN)C(=O)O; Lauroyl = CCCCCCCCCCCC(=O)*; αMeS = C[C@](N)(CO)C(=O)O; Nle = CCCC[C@H](N)C(=O)O; PEG2′ = not defined here; Aib = CC(C)(N)C(=O)O
Experiments:
Assay in all cases: cell-based or functional assay
[1] = biological target: GLP-1 receptor (GLP-1R), primary cAMP assay (human, UniProt P43220 24-463)
[2] = biological target: glucagon receptor (GCGR), primary cAMP assay (human, UniProt P47871 26-477)
Chain of glucagon receptor (GCGR), primary cAMP assay (P47871 26-477): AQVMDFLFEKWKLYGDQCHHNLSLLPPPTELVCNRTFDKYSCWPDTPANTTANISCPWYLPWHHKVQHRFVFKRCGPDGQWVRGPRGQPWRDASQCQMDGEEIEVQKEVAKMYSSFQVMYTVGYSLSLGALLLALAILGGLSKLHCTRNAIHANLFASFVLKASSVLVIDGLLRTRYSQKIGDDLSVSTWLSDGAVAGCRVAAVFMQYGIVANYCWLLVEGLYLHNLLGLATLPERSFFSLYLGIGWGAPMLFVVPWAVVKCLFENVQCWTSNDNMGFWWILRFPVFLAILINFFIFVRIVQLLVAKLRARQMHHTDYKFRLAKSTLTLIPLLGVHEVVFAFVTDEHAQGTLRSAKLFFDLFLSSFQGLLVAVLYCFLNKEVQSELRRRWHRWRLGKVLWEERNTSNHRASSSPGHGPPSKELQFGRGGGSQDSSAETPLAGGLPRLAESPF

[3] = biological target: T1, glucose-dependent insulinotropic peptide (gastric inhibitory polypeptide) receptor (GIPR), primary cAMP assay (human, UniProt P48546 22-466)
T1 sequence (looked up): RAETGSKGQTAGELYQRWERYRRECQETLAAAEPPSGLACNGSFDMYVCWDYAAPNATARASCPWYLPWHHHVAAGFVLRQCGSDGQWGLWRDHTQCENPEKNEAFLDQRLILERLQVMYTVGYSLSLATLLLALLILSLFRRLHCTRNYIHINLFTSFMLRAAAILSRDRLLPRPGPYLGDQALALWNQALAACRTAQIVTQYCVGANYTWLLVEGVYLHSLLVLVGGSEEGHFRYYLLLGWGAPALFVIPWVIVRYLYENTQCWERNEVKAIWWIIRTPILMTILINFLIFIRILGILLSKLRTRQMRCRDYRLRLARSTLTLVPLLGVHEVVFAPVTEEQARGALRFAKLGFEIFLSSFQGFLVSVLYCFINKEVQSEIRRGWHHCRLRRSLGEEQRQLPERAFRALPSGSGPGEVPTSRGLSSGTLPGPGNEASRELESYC

[4] = biological target: T2, GLP-1R in the INS1e assay (UniProt P32301 22-463, limits assumed)
T2 sequence (looked up): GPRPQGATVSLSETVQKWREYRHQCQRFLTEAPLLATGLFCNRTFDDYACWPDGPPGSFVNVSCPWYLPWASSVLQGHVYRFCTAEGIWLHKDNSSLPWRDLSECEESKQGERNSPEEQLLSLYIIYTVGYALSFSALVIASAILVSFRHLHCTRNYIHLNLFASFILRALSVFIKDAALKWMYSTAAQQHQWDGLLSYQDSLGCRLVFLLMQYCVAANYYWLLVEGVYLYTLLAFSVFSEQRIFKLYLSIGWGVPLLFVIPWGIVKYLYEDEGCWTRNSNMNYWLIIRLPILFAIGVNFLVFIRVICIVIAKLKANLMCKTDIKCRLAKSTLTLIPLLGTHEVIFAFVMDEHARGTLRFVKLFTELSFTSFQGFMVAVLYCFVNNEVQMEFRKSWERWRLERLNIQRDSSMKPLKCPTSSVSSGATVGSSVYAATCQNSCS

[5] = biological target: GLP-1 receptor (GLP-1R), primary cAMP assay cell line (human, UniProt P43220 24-463)
[6] = biological target: glucagon receptor (GCGR), primary cAMP assay cell line (human, UniProt P47871 26-477)
Chain of glucagon receptor (GCGR), primary cAMP assay cell line (P47871 26-477): as the sequence (P47871 26-477) above

[7] = biological target: T3, glucose-dependent insulinotropic peptide (gastric inhibitory polypeptide) receptor (GIPR), primary cAMP assay … (human, UniProt P48546 22-466)
T3 sequence (looked up): T1 sequence (looked up)

[8] = biological target: T4, GLP-1R in the INS1e assay (UniProt P32301 22-463, limits assumed); remark: listed apart in the source
T4 sequence (looked up): T2 sequence (looked up)

Binder	Primary assay EC50 (cAMP) Mean [1] [nM]	Primary assay EC50 (cAMP), n1 [1] [nM]	Primary assay EC50 (cAMP), n2 [1] [nM]	Primary assay EC50 (cAMP), n1 [2] [nM]	Primary assay EC50 (cAMP), n2 [2] [nM]	Primary assay EC50 (cAMP), n1 [3] [nM]	Primary assay EC50 (cAMP), n2 [3] [nM]	INS1e assay EC50 (cAMP) Mean [4] [nM]	INS1e assay EC50 (cAMP) n1 [4] [nM]	INS1e assay EC50 (cAMP) n2 [4] [nM]	cAMP Primary assay EC50, Mean pM GLP-1R [5] [pM]	cAMP Primary assay EC50, n1 [5] [nM]	cAMP Primary assay EC50, n2 [5] [nM]	cAMP Primary assay EC50, n1 [6] [nM]	cAMP Primary assay EC50, n2 [6] [nM]	cAMP Primary assay EC50, n1 [7] [nM]	cAMP Primary assay EC50, n2 [7] [nM]	cAMP INS1e assay EC50, Mean pM GLP-1R [8] [pM]	cAMP INS1e assay EC50, n1 [8] [nM]	cAMP INS1e assay EC50, n2 [8] [nM]
H[Aib]EGS[αMeF]TSDV[αMeS]SK([PEG2′-PEG2′-γGlu-Myristoyl])LEGEAA[αMeK]E[αMeF]IAK([PEG2′-PEG2′-γGlu-Myristoyl])VVEGG-NH2 [SEQ ID NO: 408]	0.0089	0.00996	0.00789	21.5	21.5	21.5	21.5	0.412	0.376	0.448	–	–	–	–	–	–	–	–	–	–
H[Aib]EGS[αMeF]TSDV[αMeS]SK([PEG2′-PEG2′-γGlu-Lauroyl])LEGEAA[αMeK]K([PEG2′-PEG2′-γGlu-Lauroyl])FIK([PEG2′-PEG2′-γGlu-Lauroyl])FVVEGG-NH2 [SEQ ID NO: 450]	–	–	–	–	–	–	–	–	–	–	49	0.028	0.07	19.9	19.9	19.9	19.9	6810	6.38	7.24
H[Aib]EGS[αMeF]TSDV[αMeS]SYK([PEG2′-PEG2′-γGlu-Lauroyl])EGEAA[αMeK]EFIK([PEG2′-PEG2′-γGlu-Lauroyl])WVVEGG-NH2 [SEQ ID NO: 268]	0.0048	0.00446	0.00505	22.2	22.2	22.2	22.2	1.16	1.09	1.23	–	–	–	–	–	–	–	–	–	–
H[Aib]EGS[αMeF]TSDV[αMeS]SYK([PEG2′-PEG2′-γGlu-Lauroyl])EGEAA[αMeK]K([PEG2′-PEG2′-γGlu-Lauroyl])FIK([PEG2′-PEG2′-γGlu-Lauroyl])FVVEGG-NH2 [SEQ ID NO: 454]	–	–	–	–	–	–	–	–	–	–	43.7	0.0221	0.0652	19.7	19.7	19.7	19.7	5540	4.1	6.99
H[Aib]EGS[αMeF]TSDV[αMeS]SK([PEG2′-PEG2′-γGlu-Lauroyl])LEGEAA[αMeK]E[Nle]IAK([PEG2′-PEG2′-γGlu-Lauroyl])VVEGG-NH2 [SEQ ID NO: 407]	0.002	0.00196	0.00201	21.5	21.5	21.5	21.5	0.104	0.113	0.0952	–	–	–	–	–	–	–	–	–	–
H[Aib]EGS[αMeF]TSDV[αMeS]SK([PEG2′-PEG2′-γGlu-Palmitoyl])LEGEAA[αMeK]E[αMeF]IAK([PEG2′-PEG2′-γGlu-Palmitoyl])VVEGG-NH2 [SEQ ID NO: 409]	0.0361	0.0395	0.0326	21.5	21.5	21.5	21.5	0.216	0.183	0.249	–	–	–	–	–	–	–	–	–	–
H[Aib]EGS[αMeF]TSDK([PEG2′-PEG2′-γGlu-Lauroyl])SSYLEGEAA[αMeK]K([PEG2′-PEG2′-γGlu-Lauroyl])FIAK([PEG2′-PEG2′-γGlu-Lauroyl])VVEGG-NH2 [SEQ ID NO: 458]	–	–	–	–	–	–	–	–	–	–	41.4	0.0363	0.0464	20	20	20	20	3370	3.07	3.67

From patent US20200079833A1 (AstraZeneca / MedImmune, published 2020)
